Experimental data: publication PMC6309520
Like-named read-outs stand apart in the source and are kept apart here.

Experiments:
Experiment in all cases: Michaelis-Menten kinetics
[1] = substrate: Nc1ncnc2c1ncn2[C@@H]1O[C@H](COP(=O)(O)OP(=O)(O)OC[C@H]2O[C@H](Oc3ccc4c(C(F)(F)F)cc(=O)oc4c3)[C@H](O)[C@@H]2O)[C@@H](O)[C@H]1O; type: biochemical, Homo sapiens
[2] = substrate: Nc1ncnc2c1ncn2[C@@H]1O[C@H](COP(=O)(O)OP(=O)(O)OC[C@H]2O[C@H](Oc3ccc([N+](=O)[O-])cc3)[C@H](O)[C@@H]2O)[C@@H](O)[C@H]1O; type: biochemical, Homo sapiens; conditions: Mg2+ ([…] MgCl2 in assay buffer)
[3] = substrate: Nc1ncnc2c1ncn2[C@@H]1O[C@H](COP(=O)(O)OP(=O)(O)OC[C@H]2O[C@H](Oc3ccc4c(C(F)(F)F)cc(=O)oc4c3)[C@H](O)[C@@H]2O)[C@@H](O)[C@H]1O; type: biochemical, Tetrahymena thermophila
[4] = substrate: Nc1ncnc2c1ncn2[C@@H]1O[C@H](COP(=O)(O)OP(=O)(O)OC[C@H]2O[C@H](Oc3ccc([N+](=O)[O-])cc3)[C@H](O)[C@@H]2O)[C@@H](O)[C@H]1O; type: biochemical, Tetrahymena thermophila

B1: ARH3 (ADP-ribosyl hydrolase 3, ADPRHL2) (Homo sapiens) (protein)
chain: MAAAAMAAAAGGGAGAARSLSRFRGCLAGALLGDCVGSFYEAHDTVDLTSVLRHVQSLEPDPGTPGSERTEALYYTDDTAMARALVQSLLAKEAFDEVDMAHRFAQEYKKDPDRGYGAGVVTVFKKLLNPKCRDVFEPARAQFNGKGSYGNGGAMRVAGISLAYSSVQDVQKFARLSAQLTHASSLGYNGAILQALAVHLALQGESSSEHFLKQLLGHMEDLEGDAQSVLDARELGMEERPYSSRLKKIGELLDQASVTREEVVSELGNGIAAFESVPTAIYCFLRCMEPDPEIPSAFNSLQRTLIYSISLGGDTDTIATMAGAIAGAYYGMDQVPESWQQSCEGYEETDILAQSLHRVFQKS
- Km ([1]; Mg2+ ([…] MgCl2 in assay buffer)): 6.3 ± 0.2 µM
- Vmax ([1]; Mg2+ ([…] MgCl2 in assay buffer)): 1.61 µmol/min/mg
- Km [2]: 3.2 ± 0.6 µM
- Vmax [2]: 1.7 µmol/min/mg

B2: ttPARG (T. thermophila PARG) (Tetrahymena thermophila) (protein)
chain: MIEAEKQENKKIQDYQFPLPQKNSELWIIQKKTLQDLSSGKQKLDSFQSLESILEILRDSKNQNDEKYFNLKAVFEQLDKEEQTYFLEQFIPKICQLVLKIKKKQLKNQIPKESKIYEAAFSREEISYYVSCMFLCILKDQDRKIYKDFRLIYLKDLVQQINIRRQEKIKCFYEYLKQALDFSEKESKEVVIFQRINCGQLEDYENWVDKLKAIKLKNVQLTDDKLIEDFPGTLQVDFANCDIGGGILGNGLVQEEIRFCVCPEMLVSLLVFDQSMEANEVIIMKGIKQYSDYQGYSNSFRFVKMGNSKIQKQKRNNPQTILAIDALCFNSSDNQFSEVNVSRELNKSYMGFKQEDQLKTISTGKWGCGAFLGVFDLKFAIQWIASSRSNKKMIICTFQDEQTTKQIQQVFDLYKQKNASIFLKLVMDYPNSKYMEDYTLLEYLIELGKEKATSKNS
- Km [3]: 210 ± 13 µM
- Vmax [3]: 28.6 µmol/min/mg
- Km [4]: 210 ± 10 µM
- Vmax [4]: 16.9 µmol/min/mg

B3: PARG (poly(ADP-ribose) glycohydrolase) (Homo sapiens) (protein)
chain: MNAGPGCEPCTKRPRWGAATTSPAASDARSFPSRQRRVLDPKDAHVQFRVPPSSPACVPGRAGQHRGSATSLVFKQKTITSWMDTKGIKTAESESLDSKENNNTRIESMMSSVQKDNFYQHNVEKLENVSQLSLDKSPTEKSTQYLNQHQTAAMCKWQNEGKHTEQLLESEPQTVTLVPEQFSNANIDRSPQNDDHSDTDSEENRDNQQFLTTVKLANAKQTTEDEQAREAKSHQKCSKSCDPGEDCASCQQDEIDVVPESPLSDVGSEDVGTGPKNDNKLTRQESCLGNSPPFEKESEPESPMDVDNSKNSCQDSEADEETSPGFDEQEDGSSSQTANKPSRFQARDADIEFRKRYSTKGGEVRLHFQFEGGESRTGMNDLNAKLPGNISSLNVECRNSKQHGKKDSKITDHFMRLPKAEDRRKEQWETKHQRTERKIPKYVPPHLSPDKKWLGTPIEEMRRMPRCGIRLPLLRPSANHTVTIRVDLLRAGEVPKPFPTHYKDLWDNKHVKMPCSEQNLYPVEDENGERTAGSRWELIQTALLNKFTRPQNLKDAILKYNVAYSKKWDFTALIDFWDKVLEEAEAQHLYQSILPDMVKIALCLPNICTQPIPLLKQKMNHSITMSQEQIASLLANAFFCTFPRRNAKMKSEYSSYPDINFNRLFEGRSSRKPEKLKTLFCYFRRVTEKKPTGLVTFTRQSLEDFPEWERCEKPLTRLHVTYEGTIEENGQGMLQVDFANRFVGGGVTSAGLVQEEIRFLINPELIISRLFTEVLDHNECLIITGTEQYSEYTGYAETYRWSRSHEDGSERDDWQRRCTEIVAIDALHFRRYLDQFVPEKMRRELNKAYCGFLRPGVSSENLSAVATGNWGCGAFGGDARLKALIQILAAAAAERDVVYFTFGDSELMRDIYSMHIFLTERKLTVGDVYKLLLRYYNEECRNCSTPGPDIKLYPFIYHAVESCAETADHSGQRTGT
- Km [1]: 66.2 ± 15 µM
- Vmax [1]: 0.84 µmol/min/mg
